# Test results reported in the supplement of paper PMC9170038.
# System: MS2 coat protein
# Experiment: apparent KD of MS2 coat protein; designed switch direction (-1 OFF switch, 1 ON switch): -1; higher = weaker reporter binding
# Summary of the method: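 Designed RNA switches were transcribed on Illumina chips by stalled E. coli RNA polymerase and titrated with SNAP-549-labelled MS2 coat protein from 0.7 or 1.5 nM, doubling to 3 µM. Step length ran from 0.8–1.5 h at the lowest concentration to 10–20 min at the highest. The apparent KD is the median over clusters for each design, from curve-fitted normalised cluster fluorescence.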
# [1] = Eterna round: R95, input ligand: FMN 200 uM
# [2] = Eterna round: R95, input ligand: microRNA oligo, concentration not stated
# [3] = Eterna round: R95, input ligand: none
# [4] = input ligand: microRNA oligo, concentration not stated
Sequence,apparent KD of MS2 coat protein (input ligand: FMN 200 uM),apparent KD of MS2 coat protein (input ligand: none),apparent KD of MS2 coat protein [1],apparent KD of MS2 coat protein [2],apparent KD of MS2 coat protein [3],apparent KD of MS2 coat protein [4]
"AGAACAUCAGGAUAUCCAUGACACUACAUGAGGAUCACCCAUGUGAAUCUCCUCAAGGCGGGAGAAGGGAUGUUUG [Eternabot (L1) Solution 34] (Eterna round: R97, puzzle: Exclusion 5)",272 nM,86.7 nM,–,–,–,–
"AGACACUGAGGAUAUACAUGAGGAUCACCCAUGUAUGGGAAAUACGAAUGUAUUAGUUGUAGAAGGUGGUGUCG [Eternabot (L1) Solution 10] (Eterna round: R97, puzzle: Exclusion 3)",183 nM,199 nM,–,–,–,–
"AGACACUUAGGAUAUCAGGCAAUGCACAUGAGGAUCACCCAUGUGGUCUUGGUCCGGGACUGAGAAGGAAGAGUCC [EX5 B.10] (Eterna round: R97, puzzle: Exclusion 5)",20.1 nM,19 nM,–,–,–,–
AGACAGUCAGGAUAUACAUGAGGAUCACCCAUGUUAAGAAAAGAAAGGGCAGGAAGAGGUAGAAGGGACAAGAA [JR_Exclu3_Sub032] (puzzle: Exclusion 3),–,–,28.8 nM,28.5 nM,32.8 nM,–
"AGACUGCUGCGAGGAUAUACAUGAGGAUCACCCAUGUUUUCCUGUGAGGCAUAGCCUCACAGGAUGUAGAAGGCGCAGUAGUCA [Mat - Exclusion NG 2 - Mod of JL - D30] (Eterna round: R96, puzzle: Exclusion NG 2)",13.8 nM,11.9 nM,–,–,–,11.2 nM
"AGAGAAUACUCAGGAUAUCUGAAUAGAAAGAGAAGAGAAGGGAGACAUGAGGAUCACCCAUGUGAAGUCUUGAGGCUGCAUGGA [Prohibition 25 - Jieux - Exclusion NG 1] (Eterna round: R96, puzzle: Exclusion NG 1)",83.5 nM,106 nM,–,–,–,145 nM
"AGAGAAUAGUCAGGAUAUGUGAAUAGAUAGAGAACAGAAGGGACACAUGAGGAUCACCCAUGUGAAGUCUUGAGGCUGCGUGGA [Prohibition 21 - Jieux - Exclusion NG 1] (Eterna round: R96, puzzle: Exclusion NG 1)",22.1 nM,20.3 nM,–,–,–,17.5 nM
AGAGAGUCAGGAUAUCGGAGGGCGAGGAGAGGAGAGAGAGACGAGAAGGGACAUGAGGAUCACCCAUGUAGGUG [JR_Exclusion4)Sub018] (puzzle: Exclusion 4),–,–,197 nM,268 nM,400 nM,–
"AGAGUGCUGCGAGGAUAUACAUGAGGAUCACCCAUGUUUUCGUGUGAGGCAAAGCCUCACACGAUGUAGAAGGCGCAGUACUCA [Mat - Exclusion NG 2 - Mod of JL - D36] (Eterna round: R96, puzzle: Exclusion NG 2)",13.2 nM,14.6 nM,–,–,–,9.73 nM
"AGAGUGGAGACAGGAUAUGAGAAUAGAUAGAAAUCAGAAGGGUCACAUGAGGAUCACCCAUGUAAAGUCUUGAGGAUGAGUGAU [Prohibition 1 - Jieux - Exclusion NG1] (Eterna round: R96, puzzle: Exclusion NG 1)",156 nM,81.7 nM,–,–,–,65.3 nM
"AGAUAGUGCUGAGGAUAUCAGAAUAGAAAGAAAUGAGAAGGCGGACAUGAGGAUCACCCAUGUGAGGUCUUGAGACUACAUGGU [Prohibition 38 - Jieux - Exclusion NG 1] (Eterna round: R96, puzzle: Exclusion NG 1)",210 nM,77.3 nM,–,–,–,65.8 nM
AGAUAGUUAGGAUAUACAUGAGGAUCACCCAUGUAGAAAAGUGGCUAAUGAGACUCCGGUAGAAGGAACAAAAU [Isanqurama] (puzzle: Exclusion 3),–,–,41.7 nM,20 nM,27.7 nM,–
"AGAUCUAGGACAGGAUAUACGGAUGUCUUCAUCGAAGAUGAAGACAUCACAUGAGGAUCACCCAUGUAGAAGGGUCCUAGAUCA [Omei Exc(NG) 2A] (Eterna round: R96, puzzle: Exclusion NG 2)",12.3 nM,14.3 nM,–,–,–,10.9 nM
"AGAUGACAUGAGGAUCACCCAUGUUAGGAUAUUUAAGCCUGUACGCGCGUACUAGACGAGAGAAGGGACAUGGC [Eternabot (Original) Solution 39] (Eterna round: R97, puzzle: Exclusion 1)",33.9 nM,30.7 nM,–,–,–,–
